Measurements from patent publication US20250101071A1 (PAUL EHRLICH INSTITUT BUNDESINSTITUT F R IMPFSTOFFE UND …, published 2025).
Positions count from the first letter of the chain named.

T1: human CD32b expressed on cells (human, UniProt P31994 43-310)
T1 construct: also called SupT1-CD32b; CHO-CD32b
T1 sequence: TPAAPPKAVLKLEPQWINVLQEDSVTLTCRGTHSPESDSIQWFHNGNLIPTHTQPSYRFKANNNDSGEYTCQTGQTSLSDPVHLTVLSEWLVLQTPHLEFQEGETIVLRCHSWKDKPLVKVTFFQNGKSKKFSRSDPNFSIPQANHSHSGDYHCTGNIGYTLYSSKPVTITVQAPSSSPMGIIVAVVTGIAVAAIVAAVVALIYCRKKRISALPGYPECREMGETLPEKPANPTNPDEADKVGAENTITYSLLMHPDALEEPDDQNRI

T2: recombinant human CD32b protein, biotinylated (human, UniProt P31994 43-217)
T2 construct: also called CD32b-His; recombinant CD32b protein
T2 sequence: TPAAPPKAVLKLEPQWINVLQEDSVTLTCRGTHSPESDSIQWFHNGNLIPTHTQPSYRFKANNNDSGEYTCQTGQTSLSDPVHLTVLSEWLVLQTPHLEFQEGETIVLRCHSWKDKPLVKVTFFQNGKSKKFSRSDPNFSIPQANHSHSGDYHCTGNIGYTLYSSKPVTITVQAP

B1: DARPin 53.A8 (designed binder)
chain: DLGKKLLEATRAGQDDEVRILMANGANVNATDEEGLTPLHLAALDGHLEIVEVLLKYGADVNADDMHGPTPLHLAAYAGHLEIVEVLLKYGADVNAYDCGGHTPLHLAARLGHLEIVEVLLKYGADVNAQDKFGKTPFDLAIDNGNEDIAEVLQKAA
B2: DARPin 53.D11 (designed binder)
chain: DLGKKLLEAARAGQDDEVRILMANGADVNATDITGATPLHLAAMWGHLEIVEVLLKYGADVNAQDYEGYTTLHLAAMWGHLEIVEVLLKYGADVNAHDVAGHTPLHLATHFGHLEIVEVLLKHGADVNAQDKFGKTPFDLAIDNGNEDIAEVLQKAA
B3: DARPin 53.C1 (designed binder)
chain: DLGKKLLEAARVGQDDEVRILMANGADVNATDNEGQTPLHLAAMWGHLEIVEVQLKHGADVNASDTFGSTPLHLAARFGHLEIVEVLLKYGADVNAADTEGFTPLHLAAIDGHLEIVEVLLKHGADVNAQDKFGKTPFDLAIDNGNEDIAEVLQKAA
B4: DARPin 53.A10 (designed binder)
chain: DLGKKLLEAARAGQDDEVRILMSNGADVNAWDKEGVTPLHLAAVHGHLEIVEVLLKHGADVNAQDDVGMTPLHLAAHWGHLEIVEVLLKYGADVNAQDYAGMTPLHLAAFQGHLEIVEVLLKHGADVNAQDKFGKTPFDLAIDNGNEDIAQVLQKAA
B5: DARPin 53.G1 (designed binder)
chain: B4 chain with A10T, Q151E
B6: DARPin 53.A11 (designed binder)
chain: DLGKKLLEATRAGQDDEVRILMANGADVNATDEEGLTPLHLAALIGHLEIVEVLLKYGADVNAADMDGTTPLHLAAQEGHLEIVEVLLKYGADVNADDFWGHTPLHLAAWFGHLEIVEVLLKHGADVNAQDKFGKTPFDLAIDNGNEDIAEVLQKAA
notes: also called 53.C9; 53.F7
B7: DARPin 53.2.B6 (designed binder)
chain: B6 chain with L81Q, T136I
B8: DARPin 53.E11 (designed binder)
chain: B6 chain with T10A, A59T
B9: DARPin 53.2.H9 (designed binder)
chain: B6 chain with A76V, H123Y, V152A
B10: DARPin 53.D7 (designed binder)
chain: B6 chain with T10A, H123N
B11: DARPin 53.2.E10 (designed binder)
chain: B6 chain with A30T
B12: DARPin 53.2.H4 (designed binder)
chain: B6 chain with A30T, E118D, K122A, H123N, G124V, Q130N, D131S, K132A, F133Q, G134S
B13: DARPin 53.H9 (designed binder)
chain: B6 chain with A64V, E151Q
B14: DARPin 53.G7 (designed binder)
chain: B6 chain with A43V, E52D
B15: DARPin 53.2.D6 (designed binder)
chain: B6 chain with E8D, T10A, R11S
B16: DARPin 53.2.H5 (designed binder)
chain: B6 chain with G58D, A109P, K122N, I149L
B17: DARPin 53.B8 (designed binder)
chain: B6 chain with A23T, A26T, L48P, G91C, H123Y
B18: DARPin 53.B10 (designed binder)
chain: B6 chain with H123N
B19: DARPin 53.2.C8 (designed binder)
chain: DLGKKLLEAARAGQDDAVRILMANGADANAYDHMGETPLHLAAMEGHLEIVEVLLKHGADVNADDWDGQTPLHLAAHWGHLEIVEVLLKYGADVKEQDVVGYTPLHLAAWIGHLEIVEVLLKNGADVNAQDKFGKTPFDLAIDNGNEDIAEVLQKAA

Molecular target: T3, neutravidin (UniProt P02701 25-152)
T3 construct: also called neutravidin NA chip (Cytiva)
Assay: SPR, Biacore T200, neutravidin NA chip

T3 sequence (P02701 25-152): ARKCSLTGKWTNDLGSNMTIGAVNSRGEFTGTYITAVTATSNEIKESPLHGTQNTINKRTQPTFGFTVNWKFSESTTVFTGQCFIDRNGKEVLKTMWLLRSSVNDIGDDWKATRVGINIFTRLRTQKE

Binder | binding result
B1 | no binding

Molecular target: T1, human CD32b expressed on cells
Assay: flow cytometry, crude E. coli extract on SupT1-CD32b cells

Binder | binding result
B1 | no binding (tested: 5-25 µl of crude DARPin extracts)
B2 | no binding (tested: 5-25 µl of crude DARPin extracts)
B3 | no binding (tested: 5-25 µl of crude DARPin extracts)
B4 | no binding (tested: 5-25 µl of crude DARPin extracts)
B5 | no binding (tested: 5-25 µl of crude DARPin extracts)
B6 | no binding (tested: 5-25 µl of crude DARPin extracts)
B7 | no binding (tested: 5-25 µl of crude DARPin extracts)
B8 | no binding (tested: 5-25 µl of crude DARPin extracts)
B9 | no binding (tested: 5-25 µl of crude DARPin extracts)
B10 | no binding (tested: 5-25 µl of crude DARPin extracts)
B11 | no binding (tested: 5-25 µl of crude DARPin extracts)
B12 | no binding (tested: 5-25 µl of crude DARPin extracts)
B13 | no binding (tested: 5-25 µl of crude DARPin extracts)
B14 | no binding (tested: 5-25 µl of crude DARPin extracts)
B15 | no binding (tested: 5-25 µl of crude DARPin extracts)
B16 | no binding (tested: 5-25 µl of crude DARPin extracts)
B17 | no binding (tested: 5-25 µl of crude DARPin extracts)
B18 | no binding (tested: 5-25 µl of crude DARPin extracts)
B19 | no binding (tested: 5-25 µl of crude DARPin extracts)

Molecular target: T2, recombinant human CD32b protein, …
Assay: SPR, Biacore T200, biotinylated CD32b on neutravidin chip

Binder | binding result
B1 | no binding
